For 2 molecules, titer results are on record in patent publication EP4261278A1.

The target in this assay is NDM-type carbapenemase (New Delhi metallo-β-lactamase), recombinant. The experiment in a line: indirect ELISA, plate coated with 0.2 µg/mL NDM carbapenemase, goat anti-mouse secondary antibody, TMB. Conditions: scale: reciprocal dilution. (In general: An ELISA detects its analyte on a solid surface through an enzyme-linked reagent.)

Bounds are passed on as bounds.

B1: anti-NDM-type carbapenemase mouse mAb 12HE11 (antibody, V domains shown)
VH: VQLHESGPELVKPGASVKLSCTASGYTLSDYHVKWVKQNHGQSLEWIGDIRPQNGDIVYNQKFKDKATLTVDKSSTTAYIRLSSLTSEDSAVYYCAFHYYAYGKWFPYWGQGTLVTVS
VL: DILMTQSPSSLTVTAGEKVTLSCRSSQSLFNSGNQKNYLTWHQQKPGQSPKLLIYWAVTRESGVPDRFTGSGSGTDFTLTISSVQAEDLAIYYCQNDYSYPLTFGAGTKLELK
As to B1, the titer is more than 1.28e+06.

B2: anti-NDM-type carbapenemase mouse mAb 1GH10 (antibody, V domains shown)
VH: SRDYGLRVELVRPGTSVKVSCKASGYAFSNYLIEWVKQRPGQGLEWIGVINPGRDDTNYNEKFKGKATLTADKSSSTAYMHLSSLTSDDSAVYFCARFPSILRYDSGSFSYFGLDCWGQGTSVTVSS
VL: DVLMTQTPLSLSVSLGDQASISCRSSQSIVHSDGNTYLDWYLQKPGQSPKLLIYKVSNRFSGVPDRFSGSGSGTDFTLKITRVEAEDLGVYYCFQISRVPFTFGSGTKLEIKR
For B2, the titer is more than 1.28e+06.
